T1: human C5a (source not stated) (human, UniProt P01031 678-751)
T1 sequence: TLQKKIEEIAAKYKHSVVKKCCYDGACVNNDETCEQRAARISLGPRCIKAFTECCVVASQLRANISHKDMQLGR

B1: Cab22 scFv (scFv, V domains shown)
VH: VVQLVESGGGLVQPGGSLKVSCTASGFIFNDYYMQWVRQAPGKGPEWVGLIRNKANGGTTEYAASVKGRFTISRDDSKSIVYLQMSSLKTEDTAVYFCTGRLGPPGLTWGQGVLVTISS
VL: DAVMTQTPLSLPVTPGEPASISCRSSQSLLASDGYNYIDWYLQRPGQSPKVLIYGGSNRASGVPDRFSGSGSGTYFTLKISKVEAEDVGFYFCLQHRALPPTFGQGTKLEIK
B2: Cab25 scFv (scFv, V domains shown)
VH: EVQLVESGGGFVQPGGSLKVSCVASGFTFSDYYIQWVRQAPGKGPEWVGLIRNKAVGGTTTYAASVKGRFTISRDDSKSVAYLQMTSLKTEDTAVYFCVSRAGPPGLSWGQGVLVTISS
VL: DAVMTQTPLSLPVTPGEPASISCRSSQSLLASDGYNYIDWYLQRPGQSPKVLIYGGSNRASGVPDRFSGSGSGTYFTLKISKVEAEDVGFYFCLQHRALPPTFGQGTKLEIK
B3: Cab26 scFv (scFv, V domains shown)
VH: EVQLVESGGGLVLPGGSLKVSCAASGFIFSDYYIQWVRQAPGKGPEWVGLIRNKAVGETVQYAASLKGRFTISRDDSKSIAYLQMTSLKTEDTAMYYCVSRAGPPGLTWGQGVLVTISS
VL: DAVMTQTPLSLPVTPGEPASISCRSSQSLLASDGYNYIDWYLQRPGQSPKVLIYGGSNRASGVPDRFSGSGSGTYFTLKISKVEAEDVGFYFCLQHRALPPTFGQGTKLEIK
B4: Cab24 scFv (scFv, V domains shown)
VH: VVQLVESGGGLVQPGGSLKVSCAASGFIFSDYYMQWVRQAPGKGPEWVGLIRKKVNGGTTEYAASVKGRFTISRDDSKSIVYLQMSSLKIEDTAVYYCVSRAGPPGLAWGQGVLVTISS
VL: DAVMTQTPLSLPVTPGEPASISCRSSQSLLASDGYNYIDWYLQRPGQSPKVLIYGGSNRASGVPDRFSGSGSGTYFTLKISKVEAEDVGFYFCLQHRALPPTFGQGTKLEIK
B5: Cab23 scFv (scFv, V domains shown)
VH: EVQLVESGGGLVQPGGSLRLSCAASGFTFSDYYIQWVRQAPGKGPEWVGLIRNKAIGGTVEYAASVKGRFTISRDDSKRIAYLQMRSLKTEDTAVYFCTGRVGPPGLTWGQGVLVTISS
VL: DAVMTQTPLSLPVTPGEPASISCRSSQSLLASDGYNYIDWYLQRPGQSPKVLIYGGSNRASGVPDRFSGSGSGTYFTLKISKVEAEDVGFYFCLQHRALPPTFGQGTKLEIK
B6: Cab39 (reformatted as human IgG1) (antibody, V domains shown)
VH: EMQLVESGGGLVQPGGSLRLSCAASGFTFSDYYMQWVRQAPGKGPEWVGLIRNKAVGITTQYAASVKGRFTISRDDSKNSVYLQMNSLKTEDTAVYYCVSRAGPPGLSWGQGVLVTVSS
VL: DIVMTQSPLSLPVTPGEPASISCRSSQSLLASDGYNYIDWYLQKPGQSPQLLIYGGSNRASGVPDRFSGSGSGTDFTLKISRVEAEDVGVYFCLQHRALPPTFGQGTKLEIK
B7: Cab20 scFv (scFv, V domains shown)
VH: EVQLVESGGGLVQPGGSLKVSCAASGFTFRDYYMQWVRQAPGKGPEWVGLIRNKAIGETAEYAASVKGRFTISRDDSKSIVYLQMSSLKTEDTAVYYCTSRAGPPGLSWGQGVLVTVSS
VL: DIVMIQNPLSLPVTPGEPASISCRSSQSLLHSDGYTYLDWYLQKPGQSPQLLIYGGSNRASGVPDRFSGSGSGTDFTLKISKVEAEDVGVYYCMQHKVLPLTFAGGTKLEIK
B8: Cab09 scFv (scFv, V domains shown)
VH: EVQLVESGGGLVQPGGSLKVSCAASGFIFSDYYMQWVRQAPGKGPEWVGLIRKKVNGGTTEYAASVKGRFTISRDDSKSIAYLQMSSLKIEDTAVYYCVSRAGPPGLTWGQGVLVTISS
VL: DIVMIQTPLSLPVTPGEPASISCRSSQSLLHSDGYTYVDWYLQKPGQSPQILIYGGSNRASGVPDRFSGSGSGTDFTLKITNVEAEDVGVYYCLQHKALPPTFGQGTKLEIK
B9: Cab10 scFv (scFv, V domains shown)
VH: QVQLVESGGGLVQPGGSLKVSCAASGFIFSDYYMQWVRQAPGKGPEWVGLIRKKVNGGTTEYAASVKGRFTISRDDSKSIVYLQMSSLKIEDTAVYYCVSRAGPPGLTWGQGVLITVSS
VL: DTVMSQIPLSLPVTPGEPASISCRSSQSLLHTDGYIYLDWYLQKPGQSPQLLIYGGSNRASGVPDRFSGSGSGTDFTLKISKVEAEDVGVYYCMQHKALPLTFGGGTKLEIK
B10: Cab02 scFv (scFv, V domains shown)
VH: EVQLVESGGGLVQPGGSLKVSCAASGFIFSDYYMQWVRQAPGKGPEWVGLIRKKVNGGTTEYAASVKGRFTISRDDSKSIAYLQMSSLKIEDTAVYYCVSRAGPPGLTWGQGVLVTISS
VL: DIVMIQTPLSLPVTPGEPASISCRSSQRLLHSDGYTYLDWYLQKPGQSPQLLIYGGSNRASGVPDRFSGSGSGTDFTLKISKVEAEDVGVYYCMQHKALPLTFGGGTKLEIK
B11: Cab30 scFv (scFv, V domains shown)
VH: DMQLVESGGGLVQPGGSLKVSCAASGFTFSDYYMQWVRQAPGKGPEWVGLIRNKAVGGTTQYAASVKGRFTISRDDSKSIVYLEMSSLKTEDTAVYYCVSRAGPPGLSWGQGVLVTVSS
VL: DIVMTQTPLSLPVTPGEPASISCRSSQSLLHSDGYTYLDWYLQRPGQSPHLLIYGGSNRASGVPDRFSGSGSGTDFTLKISKVEAEDVGVYYCMQHKVLPPTFGQGTKLEIK
B12: Cab06 scFv (scFv, V domains shown)
VH: EVHLVESGGGLVQPGGSLKVSCAASGFIFSDYYMQWVRQAPGKGPEWVGLIRKKVNGGTTEYAASVKGRFTISRDDSKSIVYLQMSSLKIEDTAVYYCVSRAGPPGLTWGQGVLVTISS
VL: DIVMIQNPLSLPVTPGEPASISCRSSQSLLASDGYNYMDWYLQKPGQSPKVLIYGGSNRASGVPDRFSGSGSGTDFTLKITKVEAEDVGIYYCMQHKVLPPTFGQGTKLEIK
B13: Cab16 scFv (scFv, V domains shown)
VH: EVHLVESGGGLVQPGGSLKVSCAASGFTFSDYYMQWVRQAPGKGPEWVGLIRNKAIGETTEYAASVKGRFTISRDDSKSIVYLQMSSLKPEDTAVYYCAGRLGPPGLSWGQGVLVTVSS
VL: DAVMTQIPLSLPVTPGEPASISCRSSQSLLHTDGYTYLDWYLQKPGQSPQLLIYGGSNRASGVPDRFSGSGSGTDFTLKISKVEAEDVGVYYCMQHKALPLTFGGGTRLEIK
B14: Cab07 scFv (scFv, V domains shown)
VH: DVQLVESGGGLVQPGGSLKVSCAASGFTFSDYYMQWVRQAPGKGPEWVGLIRNKAIGETTEYAASVKGRFTISRDDSKSIVYLQMSSLKTEDTAVYYCVSRAGPPGLSWGQGVLVTISS
VL: DTVMTQIPLSLSVTPGEPASISCRSSQRLLHTDGYTYLDWYHQKPGQSPQLLIYGGSNRASGVPDRFSGSGSVTDFTLKISKMEAEDVGVYYCMQHKALPPTFGGGTKLEIK
B15: Cab14 scFv (scFv, V domains shown)
VH: VVQLVESGGGLVQPGGSLKVSCATSGFTFSDYYMQWVRQAPGKGPEWLGLIRNKAIGGTTQYAASVKGRFTISRDDSKGIAYLQMSSLKTEDTAVYYCVCRAGPPGLSWGQGVLVTVSS
VL: DIELTQTPLSRPVTPGEPASISCRSSQSLLHTDGYTYLDWYLQKPGQSPQLLIYGGSNRASGVPDRFSGSGSGTDFTLKISKVEAEDVGVYYCMQHKALPLTFGGGTKLEIK
B16: Cab11 scFv (scFv, V domains shown)
VH: EVQLVESGGGLVQPGGSLRVSCAASGFRFSDFYMQWVRQAPGKRPEWVGLIRNKPYGGTAEYAASVKGRFTISRDDSKSVTDLQMSSLKTEDTAIYYCVMRNNGYHWGQGVLVTISS
VL: DAVMTQIPLSLPVTPGEPASISCRSSQSLLHTDGYTYLDWYLQKPGQSPQLLIYGGSNRASGVPDRFSGSGSGTDFTLKISKVEAEDVGVYYCMQHKALPPTFGGGTKLEIK
B17: Cab31 scFv (scFv, V domains shown)
VH: DMQLVESGGGLVQPGGSLKVSCAASGFTFSDYYMQWVRQAPGKGPEWVGLIRNKAVGGTTQYAASVKGRFTISRDDSKSIVYLEMSSLKTEDTAVYYCVSRAGPPGLSWGQGVLVTVSS
VL: DTVMSQIPLSLPVTPGEPASISCRSSQSLLHSDGYTYMDWYLQKPGQSPQLLIYGGSNRASGVPDRFSGSGSGTDFTLKISKVEAEDVGVYYCMQHKVLPPTFGQGTRLEIK
B18: Cab12 scFv (scFv, V domains shown)
VH: VVQLVESGGGLVQPGGSLKVSCAASGFTFSDYYMQWVRQAPGKGPEWVGLIRNKAIGETTQYAASVKGRFTISRDDSKSIVYLQMSSLKTEDTAVYYCVSRAGPPGLSWGQGVLVTISS
VL: DIVLTQTPLSLPVTPGEPASISCRSSQRLLHSDGYTYMDWYLQKPGQSPQILIYGGSNRASGVPDRFSGSGSGTDFTLKISKVEAEDVGVYYCMQHKALPPTFGQGTKLEIK
B19: Cab08 scFv (scFv, V domains shown)
VH: EVQLVESGGGLIQPGGSLRVSCAASGFTFSDYYLQWVRQAPGKGPEWVGLIRTKRYGGTSEYAASVKGRYTISRDDSKAIAYLQMSSLKTEDTAVYYCVVRIFTGLHWGKGTPVTVSS
VL: DIVMTQTPLSRPVTPGEPASISCRSSQSLLHTDGYTYLDWYLQKPGQSPQLLIYGGSNRASGVPDRFSGSGSGTDFTLKISKVEAEDVGVYYCMQHKALPLTFGGGTKLEIK
B20: Cab28 scFv (scFv, V domains shown)
VH: DMQLVESGGGLVQPGGSLKVSCAASGFTFSDYYMQWVRQAPGKGPEWVGLIRNKAVGGTTQYAASVKGRFTISRDDSKSIVYLEMSSLKTEDTAVYYCVSRAGPPGLSWGQGVLVTVSS
VL: DIVMIQNPLSLPVTPGEPASISCRSSQNLLATDGYTYLDWYLQKPGQSPQVLIYGGSKRASGVPDRFSGSGSGTDFTLKISKVEAEDVGIYYCLQHRALPPTFGQGTKLEIK
B21: Cab27 scFv (scFv, V domains shown)
VH: EVQLVQSGGGLVQPGGSLKVSCAASGFTFRDYYMQWVRQAPGKGPEWVGLIRNKAIGGTTQYAASVKGRFTISRDDSKSIVYLQMSSLKTEDTAVYYCVSRAGPPGLSWGQGVLVTVSS
VL: DAVMTQTPLSLPVTPGEPASISCRSSQSLLASDGYNYIDWYLQRPGQSPKVLIYGGSNRASGVPDRFSGSGSGTYFTLKISKVEAEDVGFYFCLQHRALPPTFGQGTKLEIK
B22: Cab29 scFv (scFv, V domains shown)
VH: DMQLVESGGGLVQPGGSLKVSCAASGFTFSDYYMQWVRQAPGKGPEWVGLIRNKAVGGTTQYAASVKGRFTISRDDSKSIVYLEMSSLKTEDTAVYYCVSRAGPPGLSWGQGVLVTVSS
VL: DIVMIQNPLSLSVSLGEPASISCRSSQSLLATDGYEYLDWYLQKPGQSPQILIYGASNRASGVPDRFSGRGSGTDFTLKITKVEAEDVGVYYCLQHKALPPTFGQGTKLEIK

Molecular target: T1, human C5a (source not stated)
Test: cell-based or functional assay

Binder	ROS IC50 [nM]
B1	0.91
B2	0.54
B3	1.13
B4	1.44
B5	0.92
B6	0.91
B7	0.81
B8	1.54
B9	2.02
B10	1.67
B11	1.18
B12	1.03
B13	0.87
B14	1.07
B15	1.2
B16	1.57
B17	1.26
B18	1.22
B19	1.29
B20	0.98
B21	1.21
B22	0.96
